Consider one substance from publication PMC4497647.

The target in assay [1] is HIV-1 envelope (Env) of strain BG505 (subtype A) (HIV-1 subtype A) (UniProt Q2N0S6).
Assay [2] addresses HIV-1 envelope (Env) of strain DH123 (subtype B) (HIV-1 subtype B).
The target in assay [3] is HIV-1 envelope (Env) of strain JR-CSF (subtype B) (HIV-1 subtype B) (UniProt P20871).
Assay [4] addresses HIV-1 envelope (Env) of strain JR-FL (subtype B) (HIV-1 subtype B) (UniProt Q75760).
Assay [5] deals with HIV-1 envelope (Env) of strain PVO.4 (subtype B) (HIV-1 subtype B).
For assay [6], the target named is HIV-1 envelope (Env) of strain REJO (subtype B) (HIV-1 subtype B).
The target in assay [7] is HIV-1 envelope (Env) of strain SF162 (subtype B) (HIV-1 subtype B) (UniProt P19550).
The target of assay [8] is HIV-1 envelope (Env) of strain THRO (subtype B) (HIV-1 subtype B).
The target in assay [9] is HIV-1 envelope (Env) of strain ZM109 (subtype C) (HIV-1 subtype C).
Assay [10] concerns the target HIV-1 envelope (Env) of strain ZM214 (subtype C) (HIV-1 subtype C).
Assay [11] addresses HIV-1 envelope (Env) of strain ZM53 (subtype C) (HIV-1 subtype C).

As for fusion inhibitor T-20 (peptide), the reduction in inhibitory activity during cell-cell transmission (293-T donor to A3.01-CCR5) against free virus infection of A3.01-CCR5 (fold change IC50) in assay [1], in [2], in assay [3], in assay [4], in assay [5] and in assay [6] was less than 10 fold each time. The reduction in inhibitory activity during cell-cell transmission (293-T donor to A3.01-CCR5) against free virus infection of A3.01-CCR5 (fold change IC50) in assay [7], in [9] and in assay [11] was less than 10 fold in each case. Also, the results for the median fold reduction for T-20 in cell-cell transmission (293-T donor to A3.01-CCR5) against free virus infection in assay [8] and in [10] were 1.6 fold and 5.3 fold, respectively.
